Assays:
[1] = biological target: T1, HLA-A*0301 (purified HLA class I molecule) (human); experiment: inhibition of 125I probe peptide binding to purified HLA; ratio to standard peptide; minus sign not explained
T1 construct: also called A3

[2] = biological target: HLA-A*1101 (purified HLA class I molecule) (human); experiment: inhibition of 125I probe peptide binding to purified HLA; ratio to standard peptide
HLA-DRB1*0101 = biological target: T2, HLA-DRB1*0101 (human); experiment: competition with 125I probe peptide, purified HLA
T2 construct: also called DR1

[3] = biological target: T3, HLA-A*6801 (purified HLA class I molecule) (human); experiment: competition vs 125I standard peptide, purified HLA
T3 construct: Purified MHC molecule

[4] = biological target: HLA-A*0301 (purified HLA class I molecule) (human); experiment: competition vs 125I standard peptide, purified HLA
[5] = biological target: T4, HLA-A*1101 (purified HLA class I molecule) (human); experiment: competition vs 125I standard peptide, purified HLA
T4 construct: Purified MHC molecule

[6] = biological target: T5, HLA-A*3301 (purified HLA class I molecule) (human); experiment: competition vs 125I standard peptide, purified HLA
T5 construct: Purified MHC molecule

[7] = biological target: T6, HLA-A*3101 (purified HLA class I molecule) (human); experiment: competition vs 125I standard peptide, purified HLA
T6 construct: Purified MHC molecule

HLA-A*0101 [8] = biological target: T7, HLA-A*0101 (human); experiment: competition with a 125I-labelled probe peptide for purified HLA-A*0101, gel filtration; ratio against the A*0101 standard peptide 944.02 [..] (25 nM)
T7 construct: Purified HLA molecule, 5 to 500 nM in the assay; also called HLA-A1

HLA-DRB1*0401 = biological target: T8, HLA-DRB1*0401 (human); experiment: competition with 125I-labeled standard peptide, purified HLA-DR, gel filtration
T8 construct: also called DR4w4

HLA-DRB1*0701 = biological target: T9, HLA-DRB1*0701 (human); experiment: as above
T9 construct: also called DR7

HLA-A*0101 [9] = biological target: T10, HLA-A*0101 (human); experiment: competition with 125I-labelled probe peptide for purified HLA-A*0101, gel filtration
T10 construct: also called HLA-A1

HLA-A*0201 = biological target: T11, HLA-A*0201 (human); experiment: competitive inhibition of 125I-labeled probe peptide binding to purified HLA-A*0201
T11 construct: also called HLA-A2.1; A2.1

HLA-A*3101 = HLA-A*3101 (human); experiment: inhibition of 125I-labelled standard peptide binding to purified HLA, gel filtration
HLA-A*6801 = HLA-A*6801 (human); experiment: as above
HLA-A*1101 = HLA-A*1101 (human); experiment: as above
HLA-A*0301 = HLA-A*0301 (human); experiment: as above
HLA-A*3301 = HLA-A*3301 (human); experiment: as above

B1: HER2/neu peptide, position 832, 9 amino acids (peptide)
peptide: GMSYLEDVR
notes: also called Her2/neu.832 (9-mer)
In the case of B1, the relative binding ratio [1] is reported as -0.0002 ratio (IC50 standard / IC50 test) and the relative binding ratio [2] is reported as 0.0002 ratio (IC50 standard / IC50 test).

B2: Her2/neu.651 (peptide)
peptide: LTSIISAVVGILLVV
With B2 the IC50 (HLA-DRB1*0101) was 26 nM.

B3: HER2/neu peptide, position 167, 9 amino acids (peptide)
peptide: ILWKDIFHK
notes: also called Her2/neu.167
For B3, the relative binding ratio [3] was 0.0046 ratio (IC50 standard/IC50 test), the relative binding ratio [4] was 0.28 ratio (IC50 standard/IC50 test) and the relative binding ratio [5] was 0.31 ratio (IC50 standard/IC50 test). The relative binding ratio [6] was 0.03 ratio (IC50 standard/IC50 test) and the relative binding ratio [7] was 0.22 ratio (IC50 standard/IC50 test).

B4: HER2/neu peptide, position 402, 8 amino acids (peptide)
peptide: TLEEITGY
notes: also called Her2/neu.402 (8-mer)
B4 was tested, and the “relative binding ratio (IC50 of standard peptide / IC50 of test peptide)” value (HLA-A*0101 [8]) was -0.0021 ratio.

B5: HER2/neu DR supermotif exemplary peptide KEILDEAYVMAGVGS (position 765) (peptide)
peptide: KEILDEAYVMAGVGS
notes: synthetic 15-mer; also called Her2/neu.765
For B5, the relative binding ratio (HLA-DRB1*0401) was 0.0073 ratio (standard IC50 / test IC50) and the relative binding ratio (HLA-DRB1*0701) was -0.0011 ratio (standard IC50 / test IC50).

B6: HER2/neu peptide, position 601, 10 amino acids (peptide)
peptide: PSGVKPDLSY
B6 was tested, and the relative binding ratio (HLA-A*0101 [9]) was 0.001 ratio (IC50 of standard peptide / IC50 of test peptide).

B7: HER2/neu peptide, position 704, 10 amino acids (peptide)
peptide: GAMPNQAQMR
notes: also called Her2/neu.704 (10-mer)
B7 was tested, and the relative binding ratio [1] was -0.0002 ratio (IC50 standard / IC50 test) and the relative binding ratio [2] was 0.0041 ratio (IC50 standard / IC50 test).

B8: HER2/neu peptide, position 753, 10 amino acids (peptide)
peptide: KVLRENTSPK
With B8 the relative binding ratio [3] was 0.0008 ratio (IC50 standard/IC50 test), the relative binding ratio [4] was 0.38 ratio (IC50 standard/IC50 test) and the relative binding ratio [5] was 0.22 ratio (IC50 standard/IC50 test). The relative binding ratio [6] was 0.0012 ratio (IC50 standard/IC50 test) and the relative binding ratio [7] was 0.0068 ratio (IC50 standard/IC50 test).

B9: Her2/neu.28 (peptide)
peptide: GTDMKLRLPASPETH
B9 was tested, and the IC50 (HLA-DRB1*0101) was 5000 nM.

B10: Her2/neu.952 (peptide)
peptide: YMIMVKCWM
In the case of B10, the IC50 (HLA-A*0201) is reported as at most 500 nM.

B11: HER2/neu peptide, position 1102, 11 amino acids (peptide)
peptide: PTHDPSPLQRY
For B11, the relative binding ratio (HLA-A*0101 [9]) was 0.016 ratio (IC50 of standard peptide / IC50 of test peptide).

B12: HER2/neu peptide, position 1013, 11 amino acids (peptide)
peptide: DMGDLVDAEEY
For B12, the relative binding ratio (HLA-A*0101 [9]) was 0.0027 ratio (IC50 of standard peptide / IC50 of test peptide).

B13: Her2/neu.799 (peptide)
peptide: QLMPYGCLL
B13 was tested, and the IC50 (HLA-A*0201) was at most 500 nM.

B14: HER2/neu peptide, position 713, 10 amino acids (peptide)
peptide: RILKETELRK
notes: Synthetic A3 supermotif peptide
With B14 the relative binding ratio (HLA-A*3101) was 0.0055 ratio (IC50 of standard peptide / IC50 of test peptide), the relative binding ratio (HLA-A*6801) was 0.0002 ratio (IC50 of standard peptide / IC50 of test peptide) and the relative binding ratio (HLA-A*1101) was 0.11 ratio (IC50 of standard peptide / IC50 of test peptide). For the same binder, the relative binding ratio (HLA-A*0301) was 0.057 ratio (IC50 of standard peptide / IC50 of test peptide) and the relative binding ratio (HLA-A*3301) was 0.0013 ratio (IC50 of standard peptide / IC50 of test peptide).

B15: Her2/neu.693 (peptide)
peptide: ETELVEPLTPSGAMP
With B15 the IC50 (HLA-DRB1*0101) was 833 nM.

B16: HER2/neu peptide, position 296, 8 amino acids (peptide)
peptide: VTACPYNY
notes: also called Her2/neu.296
For B16, the “relative binding ratio (IC50 of standard peptide / IC50 of test peptide)” value (HLA-A*0101 [8]) was 0.1 ratio.

B17: HER2/neu peptide, position 334, 10 amino acids (peptide)
peptide: CSKPCARVCY
With B17 the relative binding ratio (HLA-A*0101 [9]) was 0.0016 ratio (IC50 of standard peptide / IC50 of test peptide).

B18: HER2/neu peptide, position 402, 10 amino acids (peptide)
peptide: TLEEITGYLY
notes: also called Her2/neu.402
For B18, the “relative binding ratio (IC50 of standard peptide / IC50 of test peptide)” value (HLA-A*0101 [8]) was 1.1 ratio.

B19: HER2/neu peptide, position 745, 9 amino acids (peptide)
peptide: NVKIPVAIK
notes: as for B14
B19 was tested, and the relative binding ratio (HLA-A*3101) was 0.0015 ratio (IC50 of standard peptide / IC50 of test peptide), the relative binding ratio (HLA-A*6801) was 0.12 ratio (IC50 of standard peptide / IC50 of test peptide) and the relative binding ratio (HLA-A*1101) was 0.0007 ratio (IC50 of standard peptide / IC50 of test peptide). The relative binding ratio (HLA-A*0301) was 0.0058 ratio (IC50 of standard peptide / IC50 of test peptide) and the relative binding ratio (HLA-A*3301) was 0.082 ratio (IC50 of standard peptide / IC50 of test peptide).

B20: HER2/neu peptide, position 40, 11 amino acids (peptide)
peptide: ETHLDMLRHLY
notes: also called Her2/neu.40
In the case of B20, the relative binding ratio (HLA-A*0101 [9]) is reported as 0.28 ratio (IC50 of standard peptide / IC50 of test peptide).

B21: Her2/neu.861 (peptide)
peptide: ITDFGLARLLDIDET
Work on B21 yielded an IC50 (HLA-DRB1*0101) of 1040 nM.

Reference: patent US20040018971A1 (published 2004)
